# From the DeepSol protein solubility set
# Assay: soluble on expression in E. coli; label from the status in PepcDB or PDB records
row,Sequence,soluble on expression in E. coli
1,MAESMQSKPSFEYPKRAAIGSYWSNRNRDEKHFKNLGPASLSSASAGKVMQWMLSHTCNGVPKPKGGYDAFGKIWYAPCNMAESVAQWRASMSNDEAQPAKNRVYWIGHSSQLLCLSNGINILFDPIFSQRASPLSFAGPSRRFPPAATAAQLPPIHIVTVSHNHYDHMDKQSIKAVAARFPDAHFVVPLKLDRFLREWGVPGASITTLDWYEACEVKGVRVGCTPAQHWGKHSAFDDNEVLWCGWCVGWQPGQQQQPASTCEKPTLISFSGIEPSSEALVEAQRTWNRYKKYFFAGDTAYNPDVSTSIYAHFGPMDMAALPIGAYSPRWFMARAHIDPEHAVQIFKDQHIQQAVAVHWGTFELADEPLDEPPQVLRKTLKDASIDENRFQIIPMGKFIEF,soluble
2,MAETPNQRITEINLNKEMRTSFLDYAMSVIVARALPDVRDGLKPVHRRILYAMNDLGMTSDKAYKKSARIVGEVIGKYHPHGDTAVYFTMVRMAQDFSYRNMLVDGHGNFGSVDGDMAAAMRYTEARMSKISMELLRDINKDTIDYADNYDGSEREPVILPARFPNLLVNGSSGIAVGMATNIPTHHLGEVIDGVLALSHDPEITIRDLMEYIPGPDFPTAGMIMGRSGIRRAYESGRGSITVRGRVDIEEKKNGKETIVITEIPYQVNKARLVERIAELAREKKIDGITSLNDESDRSGMRIVIEVRRDISASVIVNNLFKMTALQTTFGINMLALVDNHPKVLNLKEILYYYLEHQKVVIRRRTEFELRKAEARAHILEGLRIALDNIDAIIKLIRGSKTSDVAKEGLMTQFNLSDKQAQAILDMRLQRLTGLEREKIEEEYQNLVALINDLKAILADDERILEIIREELEEIKVKYADKRRTEILAGDLVSLEDEDLIPEEEVAITLTKRGYIKRLPLSTYRSQRRGGRGIQGMSTHEDDFVEHLVATSTHDTLLFFTNTGKVYRSKGYEVPEYGRTAKGIPIINLLGIESQEQVNAVINLSEFTDDSYLFFTTKHGVVKRTTLSQFAKIRQSGLRAVELRENDELISVQMTDGSKNMIIATKHGQSIYFPEENIRVMGRTAAGVRGIRLREDDEVIGMEVLEDDEKVLVVTEKGYGKQTPASQYPLRNRGGMGVKTVTITEKNGNLVAMKTVTGEEDLMLMTVSGVLIRFEIDTVSQTGRSAMGVKLIRLDEDEKVATVAKVPKEEDEVELEEEIDETLITQVPDESFEDAPGSDIEE,not soluble
3,MAEVESFSLDHTKVKAPYVRLAGRKALAGGVVEKYDLRLAQPNREALPTGALHTLEHLLAGYLRDHLPGVIDLSPMGCRTGFYLVVEGPVGEEKVLEAFAQALKDVLAHEGEVPGASFRECGNYRDHDLPGAKAWAEKVLKAGLRVQATVPLEAR,soluble
4,MAEVMSQTLEDAMRRNPHLRKYVEEFRRKYGKIPEFHVQLSRDMKEIPYPNIIYPVGDPIFIHIYGDPNTEKQYIVIEPRIETKEEEEKYKLIRDRMLELAPNKDIPEEQEEFERFLDSLFEEAVL,not soluble
5,MAFRVSVRLARDTFCLSDTVEGSVAVDVEGTSHDVAAAAPSAVRVALRAVEEAGKRHAIEHMALVTTVAGPSTAHEEAAAAALRESVNRFTTEAARRHPLLGVPVSTDSTMLVEGAASEHYTYSAGAGAASNPGGVTSETATSPPQRWEAGGHYVYPFALQLPPWLPPSYYYKPSAVKSHMSMRYTVAAFVVCGVEEADVDVVPREFRLQMTVLVPCTPLPAKAWRGSSCTSDGGAEGADKRGTCASAPLLSPVRFLLPAEIPQLLERLPAAQLVDFTVLSALPKRELQQCVERVSISPPFREKLTYHIYKYSLVLRGLLRNKPYTAVDVCITYDSGAAVLLCGRQQSVVRGGVALGLAAPHGNDSGDAPAALSSAGSGVAPGGLTVMGTVVGGEYSRAPRIHTDNHGMAPSPLGKRARGRQSPAAADPHTGDSANSLWRDGEGAGGSQLSALSACTEPAINGALRLHVRVRTGSVAVSKVRVKLLERVRCTSAPATQPNDVYTLATYTHSEKIHANTSTEFPIELALPKQFRHIAADNEKYPPPAGITTAAVHTTTWLQITFPSLHAVSEAQLAENVVLVGEDVDLTDTVPFLPCACPVRTL,not soluble
6,MAGDIILRVEDLEKRFGGIVALDKVNLEIERGKVTLLIGPNGSGKTTLVNVISGFYKPDGGRVLFKGRDITGMSPHEISKLGLVRTFQIPKPFTNLTVLENVLTAADSPGENVYLAGLARRLWLGFEKRAAARAFEILGWVGLDHMWDRRSGELSGGQMKLLEIARAIMKGAEMIIMDEPAAGVNPRLAGSIMERIKYLAREKGITFLIIEHRIGLVKEYVDRVYAMSMGKVIASGKPDEVLNNPVVLESYLGG,soluble
7,MAGDPMIPVKNDPIDTRLAEMHEELRDLRNFPDSEFVGIIRELGFKCELCARCCTREFNDHVFLLDSDLERVRSIDPDAVTPAPYYEFCDQNGRFYVSGYALKTKPDGSCIFLENKRCRIYESRPSICRVYPHMLHREADETGKVDWRQISGLNEHGSYHSDLDDPACKEIALETRAYEEAYLQQVIGFFEAVKAHFRTNGLKHIQRTYDRKMREFLKGECDLEIFVYCKGGFEKQKLAKESERLEHHHHHH,soluble
8,MAGDPMKNILIFPFLSISTGHHHVADALQAELESQGLAAEKIDIFSHSYRRLEKLSSVAYLKWIQYFPKTYSGIYRLLACGEFQHDKRYFMYECVFTQQMRHILQEKQPDIAFCTHALPSYLLNRLKPEYPNLTVVNVYTDFFVNQLWGRKNIDYHFVPSTEVKKQLISEGIDQNNIYLTGIPVHQNFEMESADTLQHHPPYTIIITGGSMGVGGILKWVQELSPGGKILYKILCGRNEKLYSYVKSLHHPLIEAIPYLHSKAEMNRLYEQATGIMTKPGGVTISECLQKRLPVFIYHALPGQEEMNLNLLHERKLVTDMRNWDMQKAEEYIAAFFQSNEQMKEYKKHVNGYLGEMSDRKIKDVLKRIIWKQKNTLLKLEHHHHHH,not soluble
9,MAGDPMNEEQRKSTSIDILAERDKKTKDYSKYFEHVYQPPSLKEARKRGKEEVNYNDDFQIDEKYRNMGQGKTFLIKTYGCQMNAHDTEVMAGILGALGYTPTEDINHADVILINTCAIRENAENKVFSEIGNLKHLKKEKPETVIGVCGCMSQEESVVNKILKSYQNVDMIFGTHNIHRLPEILEEAYLSKAMVVEVWSKEGDVIENLPKVREGNIKAWVNIMYGCDKFCTYCIVPFTRGKERSRRPEDIIDEVRDLARQGYKEITLLGQNVNAYGKDIDGLAYGLGDLLEDISKIDIPRVRFTTSHPWDFTDRMIEVIANGGNIVPHVHLPVQSGNNAVLKIMGRKYTRESYLDLVNRIKTHIPNVALTTDIIVGYPNETDEQFEETLTLYDEVEFEHAYTYIYSQRDGTPAAKMNDNVPLDVKKDRLQQLNKKVACYSERAMQQYEGQTVQVLCEGVSKKDDTVLSGYTSKNKLVNFKAPKSMIGKIVNVYIDEAKQFSLNGTFISVNDKTVVTQLEHHHHHH,soluble
10,MAGDPMRRPHMSDATLVYDDDCGFCTWWADFIGERSDLEIVGFSALGDDLLERLPDDYESCSHLVTEEDVYSCGKSIETALTYTELGKPARPLVSFLRQFEDYERFRERAYRQVADNRSKWGKVMSKTPPARRDNSDLEHHHHHH,not soluble
11,MAGDPMSESLAQYQEDLRRFSDELIRIQTPIKILDAIKWPREMEERFLSSKGTVLPAIKQDFYQNIALPFDPAKTQAELLSLKNDIHRRLGKKDKLGKLLVANVDQYRLVVDMLGHRGTPTFGKLSQELYGSASHRLHGDRHTLRQLGDRLSYIFSLPAARHMNKHHPKIISAPEAVNVLSQRLEKYFHSDDMRVRLSDGIVSDAAVGGDTVKLNSKAMFSESDLNVYEVHEGWVHVGTTLNGRAQPHATWLSVGSPRVAATQEGLAVLLEMLTLSSNPGRARRISDRVAAVDMAENGADFIEVFNYFRELNLSAKDSYRVTQRVFRGGMVEGGSFFTKDISYVRGYVENINFIRSAITSGLPELIPMLFLGKLAIEDIPVLYQACQEGILTPPKYLPPMFDNFSGLYAWFGFASGLAGIDLKGVQRHFTRLFKDVPSIDPSLELLDDTEFDNNSDAAALEHHHHHH,soluble
12,MAGDTTITVVGNLTADPELRFTPSGAAVANFTVASTPRMFDRQSGEWKDGEALFLRCNIWREAAENVAESLTRGSRVIVTGRLKQRSFETREGEKRTVVEVEVDEIGPSLRYATAKVNKASRSGGGGGGFGSGGGGSRQSEPKDDPWGSAPASGSFSGADDEPPF,soluble
13,MAGGGNFIARVISYVANEFIVNGLANSHAFQRFAVRTSKRIENLSKMAAENREKVAQQMEEFAKNIDVIHEETLIILVWNLKTSVNHMGQLK,not soluble
14,MAGGLFKLMKDKSVDHSHLHKDHSIHHPTPPRSFFSSSSLAVHPNVETAQSSSEEDLRMPNIKVFSGSSHPDLSTRICERLQLEVSKASLKKFSNKETNVEIGESVRGEDVYIIQSAAGEINDNLMELLIMINACKIASSCRVAAVIPAFPYARQDKKDKSRAPISAKLVANMLSVAGADHIITMDLHASQIQGFFDIPVDNLYAEPAILKYIKESIPNWQTSVIVSPDAGGAKRVTSIADRLNVDFALIHKESKRANEVEKMTLVGSVEGKVAILVDDMADTCGTICMAADKLVEAGADKVYAFCVHGIFSGPALTRLNASKFEAVVVTNTIPQDENMKKCSKIQCIDISMILAEAIRRTHNGESVSYLFSHVPIC,not soluble
15,MAGMHFLVGISTENYVILAADKATFAYGAILADSENDKEYRLGKKLTMMCIGEEGDVAQFGDWTKRNLQLYSVRNGYEVSPSCAHHFVRRSIAEGLRSQDHYTVDVLIGGYDDKEDKAFLGSVDYLANGLGQQPYLFRGFCGRFCYAIMDREYKKDMTEAEGLALMNKCIGEAKRRFVANIPGYKVVIIDKKGYRKLDDVLF,soluble
16,MAGQIRMSPEELKSKATRYGQGANQIEDILRQLQNLQNELRGEWEGRAFEGFDQQFNQLKPKVQNFAQLLQEINMQLNKTAEAVARHDEDLSRNFGLQ,not soluble
17,MAGSATVEKRLDFGLLGPLQMTIDGTPVPSGTPKQRAVLAMLVINRNRPVGVDALITALWEEWPPSGARASIHSYVSNLRKLLGGAGIDPRVVLAAAPPGYRLSIPDNTCDLGRFVAEKTAGVHAAAAGRFEQASRHLSAALREWRGPVLDDLRDFQFVEPFATALVEDKVLAHTAKAEAEIACGRASAVIAELEALTFEHPYREPLWTQLITAYYLSDRQSDALGAYRRVKTTLADDLGIDPGPTLRALNERILRQQPLDAKKSAKTTAAGTVTVLDQRTMASGQQAVAYLHDIASGRGYPLQAAATRIGRLHDNDIVLDSANVSRHHAVIVDTGTNYVINDLRSSNGVHVQHERIRSAVTLNDGDHIRICDHEFTFQISAGTHGGT,soluble
18,MAGTGLLALRTLPGPSWVRGSGPSVLSRLQDAAVVRPGFLSTAEEETLSRELEPELRRRRYEYDHWDAAIHGFRETEKSRWSEASRAILQRVQAAAFGPGQTLLSSVHVLDLEARGYIKPHVDSIKFCGATIAGLSLLSPSVMRLVHTQEPGEWLELLLEPGSLYILRGSARYDFSHEILRDEESFFGERRIPRGRRISVICRSLPEGMGPGESGQPPPACLEHHHHHH,soluble
19,MAGVSTTQSGAIGVDRTQYMSSLVPEQALVQEAGQQYAEIVQEARAKGLLDRDPAQLSRVRAISQRLIAQTGVFRADAANWPWEVHVLSVDEVNAWCMPGGKIAVYTGLLAHIKPTDDELAAVLGHEIAHALREHARERVSQQMATSIGLSVLSMATGSPGASDLGGKLTEVMFTLPNSRTHETEADRMGVELAARAGFDPRAAVTLWQKMGAADGNAPPEFLSTHPSASTRIGELQQALQKVLPLYEQARGQAAKLEHHHHHH,not soluble
